Changes are numbered by the printed parent chain. In names and notes the source's numbering stands.
B1: murine anti-MUC16 antibody 776.1 (antibody, human IgG1, kappa, L234A L235A, V domains shown)
VH: EVQLQQSGPELVKPGASVKISCKASGYTFTDYNIHWVKQSHGKILEWIGYIYPYNGVSDYNQNFKSKATLIVDNSSNTAYMELRSLTSEDSAVYYCARWDFGSGYYFDYWGQGTTLTVSS
VL: QIVLSQSPAILFASPGETVTMTCRASSSVIYMCWNQQKPGSSPKPWIYGTSTLASGVPTRFSGSGSGTSYSLTISRVEAEDAATYYCQQWSSNPFTFGSGTKLEIKR
notes: Murine variable regions on human IgG1 (L234A, L235A, D265A, P329A) and kappa constant regions
B2: anti-MUC16 antibody 776.1(C33A) (antibody, human IgG1, kappa, L234A L235A, V domains shown)
VH: B1 VH
VL: B1 VL with C33A

What was measured:
Rhesus monkey MUC16-His = molecular target: T1, Rhesus monkey MUC16-His (rhesus monkey); experiment: BLI (ForteBio Octet RED96), antibody on AHC sensor, 50 nM antigen, 1:1 model
T1 construct: The entry includes the C-terminal 6xHis tag; also called membrane-proximal end of the extracellular region of the rhesus monkey MUC16 protein
T1 chain: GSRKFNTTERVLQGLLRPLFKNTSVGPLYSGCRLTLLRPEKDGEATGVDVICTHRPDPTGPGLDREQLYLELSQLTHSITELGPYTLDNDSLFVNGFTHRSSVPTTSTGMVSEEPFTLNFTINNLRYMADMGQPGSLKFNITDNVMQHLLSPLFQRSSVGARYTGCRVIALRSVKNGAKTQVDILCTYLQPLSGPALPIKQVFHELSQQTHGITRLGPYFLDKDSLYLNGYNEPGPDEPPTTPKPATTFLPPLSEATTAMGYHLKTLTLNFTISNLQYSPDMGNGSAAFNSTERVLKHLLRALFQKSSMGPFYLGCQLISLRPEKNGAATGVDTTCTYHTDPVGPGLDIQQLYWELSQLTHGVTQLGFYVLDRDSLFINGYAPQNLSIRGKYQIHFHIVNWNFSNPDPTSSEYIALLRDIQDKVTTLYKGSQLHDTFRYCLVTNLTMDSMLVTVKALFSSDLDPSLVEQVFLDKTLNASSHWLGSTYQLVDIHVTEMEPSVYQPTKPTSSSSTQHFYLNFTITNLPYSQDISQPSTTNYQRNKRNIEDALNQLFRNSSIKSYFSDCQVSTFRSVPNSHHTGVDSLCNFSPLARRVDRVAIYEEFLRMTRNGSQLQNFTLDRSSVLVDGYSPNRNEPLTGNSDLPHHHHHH
Text: (§1) The binding affinity of the anti-MUC-16 antibodies for the membrane-proximal end of the extracellular region of the human MUC16 protein (human MUC16-His, Table 26) and the membrane-proximal end of the extracellular region of the rhesus monkey MUC16 protein (rhesus monkey MUC16-His, Table 26) was detected by ForteBio Octet RED96, respectively. According to the manufacturer's instructions, an AHC sensor (ForteBio, Cat #18-5060) was placed in a running buffer (lx PBS, Hyclone, Cat #SH30256.01, containing 0.02% Tween 20, pH 7.0) and pre-equilibrated at room temperature for 10 min. In a 96-well plate, the kinetic assay was performed according to the following steps: a) equilibrating the baseline for 100 s with the running buffer; b) diluting the anti-MUC-16 antibodies with the running buffer to 5 μg/mL, immobilizing for 200 s, and stopping; c) equilibrating the baseline for 300 s with the running buffer; and d) diluting the human or rhesus monkey MUC16 protein with the running buffer to 50 nM, binding for 200 s, and dissociating for 600 s. The experimental data were fitted and calculated using a Fortebio Data Analysis software 1:1 binding model.

Human MUC16-His = molecular target: T2, Human MUC16-His (human); experiment: as above
T2 construct: The entry includes the C-terminal 6xHis tag; also called membrane-proximal end of the extracellular region of the human MUC16 protein; Human MUC16 protein
T2 chain: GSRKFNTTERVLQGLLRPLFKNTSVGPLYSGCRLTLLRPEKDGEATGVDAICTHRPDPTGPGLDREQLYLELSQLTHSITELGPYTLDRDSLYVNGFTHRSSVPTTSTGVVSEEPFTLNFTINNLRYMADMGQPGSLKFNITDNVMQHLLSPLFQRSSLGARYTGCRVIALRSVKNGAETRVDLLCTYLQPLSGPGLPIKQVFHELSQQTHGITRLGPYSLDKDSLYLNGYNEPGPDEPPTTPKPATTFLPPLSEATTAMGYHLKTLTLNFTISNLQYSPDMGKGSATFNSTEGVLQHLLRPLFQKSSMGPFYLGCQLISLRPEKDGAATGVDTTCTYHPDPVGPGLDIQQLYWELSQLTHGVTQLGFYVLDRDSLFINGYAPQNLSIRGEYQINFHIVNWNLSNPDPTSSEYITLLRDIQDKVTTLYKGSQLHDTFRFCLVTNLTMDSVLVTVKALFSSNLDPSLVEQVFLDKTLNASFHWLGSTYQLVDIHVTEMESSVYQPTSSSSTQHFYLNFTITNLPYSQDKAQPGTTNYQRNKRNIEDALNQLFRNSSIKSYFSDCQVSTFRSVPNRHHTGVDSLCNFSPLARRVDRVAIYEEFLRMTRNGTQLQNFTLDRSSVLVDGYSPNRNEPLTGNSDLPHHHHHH
Text: as §1

[1] = molecular target: T3, human MUC16 protein (ECT_TM huMuc16) on 293T cells (human); experiment: flow cytometry, 293T/hMUC16 cells, PE anti-human IgG Fc secondary, MFI; EC50 table under the plot, unit from the axis Conc.(nM)
T3 chain: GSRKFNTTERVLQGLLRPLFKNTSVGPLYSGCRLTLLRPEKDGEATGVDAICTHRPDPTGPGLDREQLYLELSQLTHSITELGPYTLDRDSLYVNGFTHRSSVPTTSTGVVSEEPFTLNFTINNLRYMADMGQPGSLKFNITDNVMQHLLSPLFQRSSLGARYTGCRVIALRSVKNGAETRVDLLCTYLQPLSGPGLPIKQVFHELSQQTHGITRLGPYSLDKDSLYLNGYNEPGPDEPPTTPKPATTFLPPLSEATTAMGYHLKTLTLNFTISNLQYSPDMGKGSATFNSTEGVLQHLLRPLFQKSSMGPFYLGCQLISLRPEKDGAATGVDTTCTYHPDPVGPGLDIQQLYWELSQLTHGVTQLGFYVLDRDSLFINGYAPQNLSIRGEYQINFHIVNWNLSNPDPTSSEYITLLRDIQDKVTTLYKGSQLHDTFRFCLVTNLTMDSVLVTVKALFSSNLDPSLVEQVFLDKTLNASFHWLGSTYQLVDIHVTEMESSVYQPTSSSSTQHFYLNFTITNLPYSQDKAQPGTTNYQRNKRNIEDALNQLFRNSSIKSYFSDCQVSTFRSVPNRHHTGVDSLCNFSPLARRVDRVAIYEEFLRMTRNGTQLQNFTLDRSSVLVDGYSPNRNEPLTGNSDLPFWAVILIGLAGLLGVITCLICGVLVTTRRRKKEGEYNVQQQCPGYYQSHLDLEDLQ
Method: (§2) The serially diluted anti-human MUC16 antibodies (at an initial concentration of 200 nM, 4-fold dilution, 8 points in total) obtained in the present application were added to the cells, and the cells were incubated at 4° C. for 30 min. The cells were washed twice with PBS, and then fluorescent secondary antibody R-PE-conjugated AffiniPure Goat Anti-Human IgG, Fcγ Fragment Specific (Jackson ImmunoResearch, Cat #109-116-098) was added. The cells were incubated at 4° C. for 30 min. The cells were washed twice with PBS and then resuspended, and finally, fluorescence signals were detected using a BD Accuri C5 (BD Bioscience) flow cytometer.

[2] = molecular target: T4, rhesus monkey MUC16 protein (ECT_TM RhMuc16) on 293T cells (rhesus monkey); experiment: flow cytometry, 293T/rhesus MUC16 cells, PE anti-human IgG Fc secondary, MFI; EC50 table under the plot, unit from the axis Conc.(nM)
T4 chain: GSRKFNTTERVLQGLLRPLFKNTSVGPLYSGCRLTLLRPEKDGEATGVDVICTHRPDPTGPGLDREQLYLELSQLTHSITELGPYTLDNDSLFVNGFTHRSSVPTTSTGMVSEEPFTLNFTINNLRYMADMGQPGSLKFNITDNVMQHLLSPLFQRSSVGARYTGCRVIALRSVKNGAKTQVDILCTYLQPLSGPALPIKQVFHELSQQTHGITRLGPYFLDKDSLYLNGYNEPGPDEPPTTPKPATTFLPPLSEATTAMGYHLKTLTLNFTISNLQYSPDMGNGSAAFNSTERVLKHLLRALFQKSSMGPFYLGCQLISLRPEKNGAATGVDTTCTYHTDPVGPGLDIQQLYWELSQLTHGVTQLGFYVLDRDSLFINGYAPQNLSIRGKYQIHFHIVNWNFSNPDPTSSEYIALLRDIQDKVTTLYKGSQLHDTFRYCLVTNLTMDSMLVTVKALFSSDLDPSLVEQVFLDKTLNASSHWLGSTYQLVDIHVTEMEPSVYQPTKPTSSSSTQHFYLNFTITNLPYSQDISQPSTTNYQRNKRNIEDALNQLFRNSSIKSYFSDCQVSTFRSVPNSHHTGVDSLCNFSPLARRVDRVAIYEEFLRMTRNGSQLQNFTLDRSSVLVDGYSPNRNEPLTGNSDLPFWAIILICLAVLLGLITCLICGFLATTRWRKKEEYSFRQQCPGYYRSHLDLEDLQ
Method: as §2

Binder	Kd (Rhesus monkey MUC16-His)	koff (Rhesus monkey MUC16-His)	kon (Rhesus monkey MUC16-His)	Kd (Human MUC16-His)	koff (Human MUC16-His)	kon (Human MUC16-His)	EC50 [1]	EC50 [2]
B1	1.82 nM	0.00156 s⁻¹	856000 M⁻¹ s⁻¹	0.359 nM	0.000168 s⁻¹	468000 M⁻¹ s⁻¹	2.58 nM	4.87 nM
B2	1.2 nM	0.000945 s⁻¹	791000 M⁻¹ s⁻¹	1.36 nM	0.000348 s⁻¹	255000 M⁻¹ s⁻¹	8.72 nM	11.1 nM
